Source: publication PMC10471779, “Antibody-mediated neutralization of galectin-3 as a strategy for the treatment of systemic sclerosis” (Nature Communications, 2023)
Where a chain is given by its changes, count along the chain named.

Tests used:
Conditions in all cases: both partners purified
[1] = target: T1, recombinant mouse galectin-3, full length, His-tagged (mGal-3-FL-His Nter) (Mus musculus, UniProt P16110); assay: SPR; Biacore T-200, mAb captured on anti-human Fc CM5 surface, Gal-3 0.5 to 50 nM injected, single-cycle kinetics, HBS-P (10 mM HEPES, 150 mM NaCl, 0.05% P20), 25 C, 1:1 Langmuir fit
T1 construct: galectin-3, mouse, full length; source: recombinant, produced by Novalix (Illkirch, France); not shown: His, N-terminal, kept

[2] = target: T2, recombinant human galectin-3 carbohydrate recognition domain, His-tagged (hGal-3-CRD-His Nter) (human, UniProt P17931); assay: ELISA; competition ELISA: hGal-3-CRD coated at 1 ug/mL, IgG 0.0006 to 780 nM for 1 h, washed, then asialofetuin at 8 ug/mL for 30 min; bound asialofetuin detected by HRP-labelled anti-asialofetuin antibody
T2 construct: galectin-3, human, carbohydrate recognition domain; also called CRD of hGal-3; source: recombinant, produced by Novalix (Illkirch, France); not shown: His, N-terminal, kept

[3] = target: T3, recombinant human galectin-3, full length, His-tagged (hGal-3-FL-His Nter) (Homo sapiens, UniProt P17931); assay: ELISA; dose-response binding ELISA, IgG 0.0009 to 500 nM on immobilised hGal-3-FL and mGal-3-FL (hGal-14 in Supplementary Fig. 7b); detection by anti-hFab-HRP
T3 construct: galectin-3, human, full length; the SPR methods say only recombinant Gal-3 (Novalix); also called FL hGal-3; FL-Gal-3; source: recombinant, produced by Novalix (Illkirch, France); not shown: His, N-terminal, kept

human galectin-14 = target: T4, human galectin-14 (Homo sapiens, UniProt Q8TCE9); assay: as above
T4 construct: galectin-14, human; also called hGal-14; Gal-14; source: bought: Novus Biologicals NBP1-50082

[4] = target: T1, recombinant mouse galectin-3, full …; assay: as above
[5] = target: T5, recombinant human galectin-3 carbohydrate recognition domain (Homo sapiens, UniProt P17931); assay: SPR; Biacore T-200; mAb captured (400-680 RU) on a CM5 chip with immobilised anti-human Fc mAb; Gal-3 0.5-50 nM injected, single-cycle kinetics, 210 s association, 600 s dissociation, 30 uL/min; HBS-P (10 mM HEPES, 150 mM NaCl, 0.05% P20), 25 °C; 1:1 Langmuir fit; duplicates
T5 construct: galectin-3 (Gal-3), human, carbohydrate recognition domain; the His tag is named in the ELISA methods, not in the SPR methods; also called hGal-3 (CRD); hGal-3-CRD-His Nter; source: recombinant, produced by Novalix

[6] = target: T6, recombinant human galectin-3, full-length (Homo sapiens, UniProt P17931); assay: as above
T6 construct: galectin-3 (Gal-3), human, full-length; the His tag is named for the Novalix protein in the ELISA methods; the SPR methods say only 'recombinant Gal-3 from multiple species (Novalix)'; also called human Gal-3 (FL); hGal-3 (FL); source: recombinant, produced by Novalix

[7] = target: T7, recombinant rat galectin-3 carbohydrate recognition domain (Rattus norvegicus, UniProt P08699); assay: as above
T7 construct: galectin-3 (Gal-3), rat, carbohydrate recognition domain; also called rat Gal-3 (CRD); source: recombinant, Novalix

[8] = target: T8, recombinant mouse galectin-3, full-length (Mus musculus, UniProt P16110); assay: as above
T8 construct: galectin-3 (Gal-3), mouse, full-length; the His tag is named for the Novalix protein in the ELISA methods; the SPR methods say only 'recombinant Gal-3 from multiple species (Novalix)'; also called mouse Gal-3 (FL); mGal-3 (FL); source: recombinant, produced by Novalix

[9] = target: T9, recombinant dog galectin-3 carbohydrate recognition domain (Canis lupus familiaris, UniProt P38486); assay: as above
T9 construct: galectin-3 (Gal-3), dog, carbohydrate recognition domain; also called dog Gal-3 (CRD); source: recombinant, Novalix

T6 sequence (P17931 whole entry): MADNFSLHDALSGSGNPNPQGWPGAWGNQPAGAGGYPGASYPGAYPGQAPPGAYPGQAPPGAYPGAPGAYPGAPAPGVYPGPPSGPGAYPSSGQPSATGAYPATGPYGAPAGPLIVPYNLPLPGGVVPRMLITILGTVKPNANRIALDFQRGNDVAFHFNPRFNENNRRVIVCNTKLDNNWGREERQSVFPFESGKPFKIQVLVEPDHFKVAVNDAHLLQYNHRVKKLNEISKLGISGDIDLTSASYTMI
T8 sequence (P16110 whole entry): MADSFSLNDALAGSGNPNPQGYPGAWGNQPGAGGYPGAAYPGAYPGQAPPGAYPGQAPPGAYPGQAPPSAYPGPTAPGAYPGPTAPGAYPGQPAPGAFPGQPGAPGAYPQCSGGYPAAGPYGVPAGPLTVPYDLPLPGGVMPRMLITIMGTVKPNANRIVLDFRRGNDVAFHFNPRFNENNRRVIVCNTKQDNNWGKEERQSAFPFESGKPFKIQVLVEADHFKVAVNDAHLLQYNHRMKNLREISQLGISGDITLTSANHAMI
T1 sequence (P16110 whole entry): as above
T3 sequence (P17931 whole entry): as the sequence (P17931 whole entry) above
T4 sequence (Q8TCE9 whole entry): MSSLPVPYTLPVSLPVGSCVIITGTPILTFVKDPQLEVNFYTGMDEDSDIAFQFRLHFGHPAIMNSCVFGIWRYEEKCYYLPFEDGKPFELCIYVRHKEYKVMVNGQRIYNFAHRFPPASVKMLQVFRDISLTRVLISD
T2 sequence (P17931 114-250): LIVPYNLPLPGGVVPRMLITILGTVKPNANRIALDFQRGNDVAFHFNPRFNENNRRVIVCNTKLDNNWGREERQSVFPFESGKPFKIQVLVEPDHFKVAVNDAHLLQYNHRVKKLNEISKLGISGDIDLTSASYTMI

B1: D11 anti-Gal-3 monoclonal antibody (hIgG1 format, LALA) (antibody, V domains shown)
VH: EVQLVESGGSLVKPGGSLRLSCAASGFTFSNYNMNWVRQAPGKGLEWISSIYGSSRYIYYADFVKGRFTISRDNAKNSLYLQMNSLRAEDTAVYYCVRSSYGGMDVWGRGTLVTVSS
VL: QSVLTQPASVSGSPGQSITISCAGTSSDVGGSYNVAWYQQHPGKAPKLMIYYDSYRPSGVSNRFSGSKSGNTASLTISGLQAEDEADYYCSSYTGYSTRVFGGGTKLEIK
notes: from scFv D11 (HuscI library, human framework 13R4); human IgG1 heavy-chain constant region, engineered with the double LALA mutation in the Fc region; IgG1 with LALA; also called D11 mAb; source: CHO-K1 cells (Evitria), transfected, purified (protein A, MabSelect SuRe)
- Kd [1]: < 5 nM
- IC50 [2]: 2.18 nM
- EC50 [3]: 0.37 nM
- EC50 (human galectin-14): 59.9 nM
- EC50 [4]: 0.99 nM

B2: E07 anti-Gal-3 monoclonal antibody (antibody, V domains shown)
VH: B1 VH with S50N, S100Y
VL: B1 VL with S32Y, N34S, A36S, Y55N
notes: human IgG1, LALA; also called E07 mAb; source: CHO-K1 cells (Evitria), purified (protein A, MabSelect SuRe)
- Kd [5]: 14.4 nM
- koff [5]: 0.0377 s⁻¹
- kon [5]: 2.61e+06 M⁻¹ s⁻¹
- Kd [6]: 9 nM
- koff [6]: 0.0292 s⁻¹
- kon [6]: 3.24e+06 M⁻¹ s⁻¹
- Kd [7]: 15 nM
- koff [7]: 0.0497 s⁻¹
- kon [7]: 3.31e+06 M⁻¹ s⁻¹
- Kd [8]: 4.14 nM
- koff [8]: 0.00407 s⁻¹
- kon [8]: 983000 M⁻¹ s⁻¹
- Kd [9]: 21.5 nM
- koff [9]: 0.016 s⁻¹
- kon [9]: 746000 M⁻¹ s⁻¹

B3: D11 anti-Gal-3 monoclonal antibody (antibody, V domains shown)
VH: B1 VH
VL: B1 VL
notes: human IgG1, LALA; also called D11 mAb; source: CHO-K1 cells (Evitria), purified (protein A, MabSelect SuRe)
- Kd [5]: 26.4 nM
- koff [5]: 0.0428 s⁻¹
- kon [5]: 1.62e+06 M⁻¹ s⁻¹
- Kd [6]: 14.9 nM
- koff [6]: 0.0247 s⁻¹
- kon [6]: 1.66e+06 M⁻¹ s⁻¹
- Kd [7]: 8.55 nM
- koff [7]: 0.018 s⁻¹
- kon [7]: 2.11e+06 M⁻¹ s⁻¹
- Kd [8]: 2.8 nM
- koff [8]: 0.00178 s⁻¹
- kon [8]: 635000 M⁻¹ s⁻¹
- Kd [9]: 24.7 nM
- koff [9]: 0.0235 s⁻¹
- kon [9]: 948000 M⁻¹ s⁻¹

B4: E07 anti-Gal-3 monoclonal antibody (hIgG1 format, LALA) (antibody, V domains shown)
VH: B1 VH with S50N, S100Y
VL: B1 VL with S32Y, N34S, A36S, Y55N
notes: from scFv E07 (HuscI library, human framework 13R4); human IgG1 heavy-chain constant region, engineered with the double LALA mutation in the Fc region; IgG1 with LALA; also called E07 mAb; source: CHO-K1 cells (Evitria), transfected, purified (protein A, MabSelect SuRe)
- Kd [1]: < 5 nM
- IC50 [2]: 1.5 nM
- EC50 [3]: 0.07 nM
- EC50 (human galectin-14): 90.6 nM
- EC50 [4]: 0.3 nM
